Patent US20210403578A1 (published 2021)

T1: Fz8-CRD (UniProt Q9H461 32-151, fluorescence-conjugated)
T1 chain: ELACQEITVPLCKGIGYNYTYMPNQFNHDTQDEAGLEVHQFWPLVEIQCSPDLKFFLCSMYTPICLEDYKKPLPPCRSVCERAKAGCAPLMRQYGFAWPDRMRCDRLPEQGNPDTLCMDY


Columns and labels:
[1] = target: Fz27C49; assay: yeast surface titration
[2] = target: Fz27C3; assay: yeast surface titration
[3] = target: Fzd5CRD; assay: SPR
[4] = target: Fzd1CRD; assay: SPR
[5] = target: Fzd7CRD; assay: SPR
[6] = target: T1, Fz8-CRD; assay: SPR

Kd [1] [pM] | Kd [2] [pM] | Kd [3] [pM] | Kd [4] [pM] | Kd [5] [pM] | Kd [6] [pM] | Binder
~92 | ~122 | – | – | – | – | Fzd8-CRD (receptor, fluorescence-conjugated) ELACQEITVPLCKGIGYNYTYMPNQFNHDTQDEAGLEVHQFWPLVEIQCSPDLKFFLCSMYTPICLEDYKKPLPPCRSVCERAKAGCAPLMRQYGFAWPDRMRCDRLPEQGNPDTLCMDY
– | – | 750 | 1100 | 820 | 1400 | scFv(Onco)-DKK1c (other) MLLVNQSHQGFNKEHTSKMVSAIVLYVLLAAAAHSAFAADPIELTQPPSVSVAPGQTARISCSGDNIGSFYVHWYQQKPGQAPVLVIYDKSNRPSGIPERFSGSNSGNTATLTISGTQAEDEADYYCQSYANTLSLVFGGGTKLTVLGTTAASGSSGGSSSGAEVQLVESGGGLVQPGGSLRLSCAASGFTFSHYTLSWVRQAPGKGLEWVSVISGDGSYTYYADSVKGRFTISSDNSKNTLYLQMNSLRAEDTAVYYCARNFIKYVFANWGQGTLVTVSGSGSGKMYHTKGQEGSVCLRSSDCASGLCCARHFWSKICKPVLKEGQVCTKHRRKGSHGLEIFQRCYCGEGLSCRIQKDHHQASNSSRLHTCQRHHHHHHH
